Measured values: the supplement of paper PMC7125110
± gives the standard error. This sample holds only a part of the variants without activity.

B1: glmS ribozyme (parent)
chain: AUAAAAGCGCCAGAACUACAGAAAUGUAGUUGACGAGGAGGAGGUUUAUCGAAUUUUCGGCGGAUGCCUCCAAA

Tests used:
Settings in all cases: with glucosamine-6-phosphate
[1] = variants of: B1; assay: self-cleavage kobs at 160 uM GlcN6P; higher = faster cleavage; RNA array
Procedure, shortened: (§1)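 Ribozyme variants carrying barcodes were transcribed in situ on sequenced MiSeq chips by E. coli RNA polymerase and tracked at 37 °C with a hybridised Cy3 probe. They were exposed to 40 μM to 10 mM glucosamine-6-phosphate in HEPES/KCl/Mg(OAc)2 buffer. kobs came from exponential decay fits of normalised per-tile medians, and kcat and KM from weighted Michaelis–Menten fits.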

[2] = variants of: B1; assay: self-cleavage kobs at 640 uM GlcN6P; higher = faster cleavage; RNA array
Procedure, shortened: as §1

[3] = variants of: B1; assay: self-cleavage kobs at 2500 uM GlcN6P; higher = faster cleavage; RNA array
Procedure, shortened: as §1

[4] = variants of: B1; assay: self-cleavage kobs at 10000 uM GlcN6P; higher = faster cleavage; RNA array
Procedure, shortened: as §1

## C8U G9C U31G A33C
[1]
  self-cleavage kobs at 160 uM GlcN6P: < 1e-05 s⁻¹
[2]
  self-cleavage kobs at 640 uM GlcN6P: < 1e-05 s⁻¹
[3]
  self-cleavage kobs at 2500 uM GlcN6P: < 1e-05 s⁻¹

## G7C A24U U46A C68U
[1]
  self-cleavage kobs at 160 uM GlcN6P: < 1e-05 s⁻¹
[2]
  self-cleavage kobs at 640 uM GlcN6P: < 1e-05 s⁻¹
[4]
  self-cleavage kobs at 10000 uM GlcN6P: < 1e-05 s⁻¹

## C10G G38U G41U U49C C50U C70A
[1]
  self-cleavage kobs at 160 uM GlcN6P: < 1e-05 s⁻¹
[4]
  self-cleavage kobs at 10000 uM GlcN6P: < 1e-05 s⁻¹

## C8G G37A
[1]
  self-cleavage kobs at 160 uM GlcN6P: < 1e-05 s⁻¹
[2]
  self-cleavage kobs at 640 uM GlcN6P: < 1e-05 s⁻¹
[3]
  self-cleavage kobs at 2500 uM GlcN6P: < 1e-05 s⁻¹

## C10A G32C G38C
[1]
  self-cleavage kobs at 160 uM GlcN6P: < 1e-05 s⁻¹
[3]
  self-cleavage kobs at 2500 uM GlcN6P: < 1e-05 s⁻¹

## G7C A14C U46G
[1]
  self-cleavage kobs at 160 uM GlcN6P: < 1e-05 s⁻¹
[2]
  self-cleavage kobs at 640 uM GlcN6P: < 1e-05 s⁻¹
[3]
  self-cleavage kobs at 2500 uM GlcN6P: < 1e-05 s⁻¹

## G9U G40C G51A
[1]
  self-cleavage kobs at 160 uM GlcN6P: < 1e-05 s⁻¹
[2]
  self-cleavage kobs at 640 uM GlcN6P: < 1e-05 s⁻¹
[3]
  self-cleavage kobs at 2500 uM GlcN6P: < 1e-05 s⁻¹

## A6G C34G G51U G63A
[1]
  self-cleavage kobs at 160 uM GlcN6P: < 1e-05 s⁻¹
[2]
  self-cleavage kobs at 640 uM GlcN6P: < 1e-05 s⁻¹
[3]
  self-cleavage kobs at 2500 uM GlcN6P: < 1e-05 s⁻¹

## G9U G40A A52U
[1]
  self-cleavage kobs at 160 uM GlcN6P: < 1e-05 s⁻¹
[3]
  self-cleavage kobs at 2500 uM GlcN6P: < 1e-05 s⁻¹

## C8G C50A
[1]
  self-cleavage kobs at 160 uM GlcN6P: < 1e-05 s⁻¹
[3]
  self-cleavage kobs at 2500 uM GlcN6P: < 1e-05 s⁻¹
[4]
  self-cleavage kobs at 10000 uM GlcN6P: < 1e-05 s⁻¹

## G9A C11U C16U G63A U65G C68G
[1]
  self-cleavage kobs at 160 uM GlcN6P: 4.96e-05 ± 1.6e-05 s⁻¹
[2]
  self-cleavage kobs at 640 uM GlcN6P: 7.82e-05 ± 1.8e-05 s⁻¹
[3]
  self-cleavage kobs at 2500 uM GlcN6P: 3.97e-05 ± 1.5e-05 s⁻¹

## C8G C11U A48U U57G C71U
[1]
  self-cleavage kobs at 160 uM GlcN6P: < 1e-05 s⁻¹

## C8U U31G G44U C71G
[1]
  self-cleavage kobs at 160 uM GlcN6P: < 1e-05 s⁻¹
[2]
  self-cleavage kobs at 640 uM GlcN6P: < 1e-05 s⁻¹

## C8U G13U G43A C61G
[1]
  self-cleavage kobs at 160 uM GlcN6P: < 1e-05 s⁻¹

## G7U G40C G44U U47C G51U
[1]
  self-cleavage kobs at 160 uM GlcN6P: < 1e-05 s⁻¹
[3]
  self-cleavage kobs at 2500 uM GlcN6P: < 1e-05 s⁻¹

## C8G A14G A15U G41C U47G U56A
[1]
  self-cleavage kobs at 160 uM GlcN6P: < 1e-05 s⁻¹
[2]
  self-cleavage kobs at 640 uM GlcN6P: < 1e-05 s⁻¹
[3]
  self-cleavage kobs at 2500 uM GlcN6P: < 1e-05 s⁻¹

## A6C C34U U56C
[1]
  self-cleavage kobs at 160 uM GlcN6P: < 1e-05 s⁻¹

## A6G C67U C71U
[1]
  self-cleavage kobs at 160 uM GlcN6P: < 1e-05 s⁻¹

## C8A G9U C19A G29C C34A A48C
[1]
  self-cleavage kobs at 160 uM GlcN6P: < 1e-05 s⁻¹
[3]
  self-cleavage kobs at 2500 uM GlcN6P: < 1e-05 s⁻¹

## C10U C11U G13A
[1]
  self-cleavage kobs at 160 uM GlcN6P: < 1e-05 s⁻¹
[2]
  self-cleavage kobs at 640 uM GlcN6P: < 1e-05 s⁻¹
[3]
  self-cleavage kobs at 2500 uM GlcN6P: < 1e-05 s⁻¹

## C10G G63C U65G
[1]
  self-cleavage kobs at 160 uM GlcN6P: < 1e-05 s⁻¹
[3]
  self-cleavage kobs at 2500 uM GlcN6P: < 1e-05 s⁻¹

## C10A A12G C16A U47C G63A C67G
[1]
  self-cleavage kobs at 160 uM GlcN6P: < 1e-05 s⁻¹
[2]
  self-cleavage kobs at 640 uM GlcN6P: < 1e-05 s⁻¹

## G9C U30G U45A
[1]
  self-cleavage kobs at 160 uM GlcN6P: < 1e-05 s⁻¹

## A6G A42C
[1]
  self-cleavage kobs at 160 uM GlcN6P: < 1e-05 s⁻¹
[2]
  self-cleavage kobs at 640 uM GlcN6P: < 1e-05 s⁻¹
[3]
  self-cleavage kobs at 2500 uM GlcN6P: < 1e-05 s⁻¹
[4]
  self-cleavage kobs at 10000 uM GlcN6P: < 1e-05 s⁻¹

## G7U A14C G66U
[1]
  self-cleavage kobs at 160 uM GlcN6P: < 1e-05 s⁻¹
[3]
  self-cleavage kobs at 2500 uM GlcN6P: < 1e-05 s⁻¹

## C10G C50G C67U
[1]
  self-cleavage kobs at 160 uM GlcN6P: 9.87e-05 ± 2.3e-05 s⁻¹
[3]
  self-cleavage kobs at 2500 uM GlcN6P: 0.000267 ± 5.1e-05 s⁻¹

## C10A G35C C67U
[1]
  self-cleavage kobs at 160 uM GlcN6P: < 1e-05 s⁻¹
[3]
  self-cleavage kobs at 2500 uM GlcN6P: < 1e-05 s⁻¹

## C8U G59U G63C
[1]
  self-cleavage kobs at 160 uM GlcN6P: < 1e-05 s⁻¹
[2]
  self-cleavage kobs at 640 uM GlcN6P: < 1e-05 s⁻¹
[3]
  self-cleavage kobs at 2500 uM GlcN6P: < 1e-05 s⁻¹

## G7A G9U C58A
[1]
  self-cleavage kobs at 160 uM GlcN6P: < 1e-05 s⁻¹
[2]
  self-cleavage kobs at 640 uM GlcN6P: < 1e-05 s⁻¹

## G9A U31C G51U G59U C68G
[1]
  self-cleavage kobs at 160 uM GlcN6P: < 1e-05 s⁻¹

## G9A U30G G37U
[1]
  self-cleavage kobs at 160 uM GlcN6P: < 1e-05 s⁻¹

## G9U A42G U46G
[1]
  self-cleavage kobs at 160 uM GlcN6P: < 1e-05 s⁻¹
[2]
  self-cleavage kobs at 640 uM GlcN6P: < 1e-05 s⁻¹

## A6C G40U C61A
[1]
  self-cleavage kobs at 160 uM GlcN6P: < 1e-05 s⁻¹
[3]
  self-cleavage kobs at 2500 uM GlcN6P: < 1e-05 s⁻¹
[4]
  self-cleavage kobs at 10000 uM GlcN6P: < 1e-05 s⁻¹

## G9U G13C G40A G44U G63U
[1]
  self-cleavage kobs at 160 uM GlcN6P: < 1e-05 s⁻¹
[2]
  self-cleavage kobs at 640 uM GlcN6P: < 1e-05 s⁻¹
[3]
  self-cleavage kobs at 2500 uM GlcN6P: < 1e-05 s⁻¹

## C8G C11G U54A
[1]
  self-cleavage kobs at 160 uM GlcN6P: < 1e-05 s⁻¹
[3]
  self-cleavage kobs at 2500 uM GlcN6P: < 1e-05 s⁻¹

## C8A C10U U31A
[1]
  self-cleavage kobs at 160 uM GlcN6P: < 1e-05 s⁻¹
[4]
  self-cleavage kobs at 10000 uM GlcN6P: < 1e-05 s⁻¹

## G7U U55G U57G C61A A64C C68U
[1]
  self-cleavage kobs at 160 uM GlcN6P: < 1e-05 s⁻¹
[3]
  self-cleavage kobs at 2500 uM GlcN6P: < 1e-05 s⁻¹

## G7A G38U G44C U49A A53U U56C
[1]
  self-cleavage kobs at 160 uM GlcN6P: < 1e-05 s⁻¹

## C10G G32U U69G
[1]
  self-cleavage kobs at 160 uM GlcN6P: < 1e-05 s⁻¹

## C10U A39U C67G
[1]
  self-cleavage kobs at 160 uM GlcN6P: < 1e-05 s⁻¹
[2]
  self-cleavage kobs at 640 uM GlcN6P: < 1e-05 s⁻¹

## G9C U56C C67U C71G
[1]
  self-cleavage kobs at 160 uM GlcN6P: < 1e-05 s⁻¹
[2]
  self-cleavage kobs at 640 uM GlcN6P: < 1e-05 s⁻¹
[3]
  self-cleavage kobs at 2500 uM GlcN6P: < 1e-05 s⁻¹

## G9U G13A
[1]
  self-cleavage kobs at 160 uM GlcN6P: < 1e-05 s⁻¹
[2]
  self-cleavage kobs at 640 uM GlcN6P: < 1e-05 s⁻¹
[4]
  self-cleavage kobs at 10000 uM GlcN6P: < 1e-05 s⁻¹

## C8A G13A G43U G51U
[1]
  self-cleavage kobs at 160 uM GlcN6P: < 1e-05 s⁻¹
[3]
  self-cleavage kobs at 2500 uM GlcN6P: < 1e-05 s⁻¹

## C8U C34G G41A
[1]
  self-cleavage kobs at 160 uM GlcN6P: < 1e-05 s⁻¹
[2]
  self-cleavage kobs at 640 uM GlcN6P: < 1e-05 s⁻¹

## G9U C10U C16U
[1]
  self-cleavage kobs at 160 uM GlcN6P: < 1e-05 s⁻¹
[3]
  self-cleavage kobs at 2500 uM GlcN6P: < 1e-05 s⁻¹

## G7U G9C C10G A53C C61U
[1]
  self-cleavage kobs at 160 uM GlcN6P: < 1e-05 s⁻¹
[3]
  self-cleavage kobs at 2500 uM GlcN6P: < 1e-05 s⁻¹

## G7C A53C
[1]
  self-cleavage kobs at 160 uM GlcN6P: < 1e-05 s⁻¹
[2]
  self-cleavage kobs at 640 uM GlcN6P: < 1e-05 s⁻¹
[3]
  self-cleavage kobs at 2500 uM GlcN6P: < 1e-05 s⁻¹

## G7C C16U G44U
[1]
  self-cleavage kobs at 160 uM GlcN6P: < 1e-05 s⁻¹

## G7C C68U
[1]
  self-cleavage kobs at 160 uM GlcN6P: < 1e-05 s⁻¹
[2]
  self-cleavage kobs at 640 uM GlcN6P: < 1e-05 s⁻¹
[3]
  self-cleavage kobs at 2500 uM GlcN6P: < 1e-05 s⁻¹
[4]
  self-cleavage kobs at 10000 uM GlcN6P: < 1e-05 s⁻¹

## C10A A12U U46A
[1]
  self-cleavage kobs at 160 uM GlcN6P: < 1e-05 s⁻¹
[2]
  self-cleavage kobs at 640 uM GlcN6P: < 1e-05 s⁻¹

## C8A A12C
[1]
  self-cleavage kobs at 160 uM GlcN6P: < 1e-05 s⁻¹
[2]
  self-cleavage kobs at 640 uM GlcN6P: < 1e-05 s⁻¹
[3]
  self-cleavage kobs at 2500 uM GlcN6P: < 1e-05 s⁻¹
[4]
  self-cleavage kobs at 10000 uM GlcN6P: < 1e-05 s⁻¹

## C8A G29C C50U
[1]
  self-cleavage kobs at 160 uM GlcN6P: < 1e-05 s⁻¹
[3]
  self-cleavage kobs at 2500 uM GlcN6P: < 1e-05 s⁻¹

## C8G A12U G63U
[1]
  self-cleavage kobs at 160 uM GlcN6P: < 1e-05 s⁻¹
[2]
  self-cleavage kobs at 640 uM GlcN6P: < 1e-05 s⁻¹
[3]
  self-cleavage kobs at 2500 uM GlcN6P: < 1e-05 s⁻¹

## C8U G63A
[1]
  self-cleavage kobs at 160 uM GlcN6P: < 1e-05 s⁻¹
[3]
  self-cleavage kobs at 2500 uM GlcN6P: < 1e-05 s⁻¹
[4]
  self-cleavage kobs at 10000 uM GlcN6P: < 1e-05 s⁻¹

## A6U G44U U55C
[1]
  self-cleavage kobs at 160 uM GlcN6P: < 1e-05 s⁻¹
[2]
  self-cleavage kobs at 640 uM GlcN6P: < 1e-05 s⁻¹
[3]
  self-cleavage kobs at 2500 uM GlcN6P: < 1e-05 s⁻¹

## A6C G29C C58G C71A
[1]
  self-cleavage kobs at 160 uM GlcN6P: 6.35e-05 ± 1.9e-05 s⁻¹
[2]
  self-cleavage kobs at 640 uM GlcN6P: 0.000108 ± 4.5e-05 s⁻¹
